Holding throughout (experiment): cell-based or functional assay
The target of assay [1] is murine IL12 receptor complex (IL12Rβ1 and IL12Rβ2) on cells (murine) (UniProt Q60837).
Assay [2] has the same target. This is another data set of the same source.
For assay [3] the target is unchanged. This is another data set of the same source.

Where two headings read alike, the source gives them in different places.

Sequence of murine IL12 receptor complex (IL12Rβ1 and IL12Rβ2) on cells (murine) (Q60837 20-738, chain 1 of 2): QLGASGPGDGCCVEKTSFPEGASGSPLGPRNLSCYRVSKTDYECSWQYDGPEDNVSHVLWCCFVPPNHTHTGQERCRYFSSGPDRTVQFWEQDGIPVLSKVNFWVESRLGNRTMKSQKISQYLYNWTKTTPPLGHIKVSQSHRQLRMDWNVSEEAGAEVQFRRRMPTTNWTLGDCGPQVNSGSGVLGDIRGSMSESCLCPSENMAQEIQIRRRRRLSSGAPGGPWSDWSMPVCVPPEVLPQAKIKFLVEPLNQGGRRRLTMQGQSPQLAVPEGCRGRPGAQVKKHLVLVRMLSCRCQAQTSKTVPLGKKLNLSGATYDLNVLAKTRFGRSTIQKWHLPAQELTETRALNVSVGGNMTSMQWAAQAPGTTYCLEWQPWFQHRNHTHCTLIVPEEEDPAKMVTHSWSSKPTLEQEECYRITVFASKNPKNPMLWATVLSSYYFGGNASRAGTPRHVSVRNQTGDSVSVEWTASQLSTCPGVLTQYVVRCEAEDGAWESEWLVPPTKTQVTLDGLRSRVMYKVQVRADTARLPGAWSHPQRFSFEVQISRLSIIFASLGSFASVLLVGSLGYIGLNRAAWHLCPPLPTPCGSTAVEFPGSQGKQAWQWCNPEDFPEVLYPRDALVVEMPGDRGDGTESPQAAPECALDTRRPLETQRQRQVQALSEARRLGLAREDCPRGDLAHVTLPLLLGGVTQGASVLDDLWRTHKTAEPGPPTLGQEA
Sequence of murine IL12 receptor complex (IL12Rβ1 and IL12Rβ2) on cells (murine) (P97378 24-874, chain 2 of 2, further chain): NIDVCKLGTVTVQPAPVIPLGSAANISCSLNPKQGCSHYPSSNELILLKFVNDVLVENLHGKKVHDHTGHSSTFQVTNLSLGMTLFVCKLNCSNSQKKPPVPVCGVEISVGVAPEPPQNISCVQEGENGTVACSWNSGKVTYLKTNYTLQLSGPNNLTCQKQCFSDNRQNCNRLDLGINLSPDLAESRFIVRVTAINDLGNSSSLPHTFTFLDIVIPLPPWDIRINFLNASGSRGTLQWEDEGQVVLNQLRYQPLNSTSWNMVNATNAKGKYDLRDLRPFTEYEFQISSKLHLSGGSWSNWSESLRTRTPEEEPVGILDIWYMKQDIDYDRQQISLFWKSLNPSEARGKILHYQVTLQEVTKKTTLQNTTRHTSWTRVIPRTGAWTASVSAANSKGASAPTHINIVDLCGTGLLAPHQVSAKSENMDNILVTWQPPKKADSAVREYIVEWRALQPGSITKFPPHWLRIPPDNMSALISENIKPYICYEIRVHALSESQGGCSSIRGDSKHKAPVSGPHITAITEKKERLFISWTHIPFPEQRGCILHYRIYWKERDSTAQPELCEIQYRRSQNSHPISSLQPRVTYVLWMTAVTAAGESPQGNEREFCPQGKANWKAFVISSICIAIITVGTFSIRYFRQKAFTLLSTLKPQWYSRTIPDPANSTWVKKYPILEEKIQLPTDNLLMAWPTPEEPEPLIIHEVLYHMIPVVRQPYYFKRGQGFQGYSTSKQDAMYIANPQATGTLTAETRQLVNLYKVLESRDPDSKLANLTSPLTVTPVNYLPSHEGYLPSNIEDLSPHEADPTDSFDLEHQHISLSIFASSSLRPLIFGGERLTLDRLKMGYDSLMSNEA

B1: Recomb mIL12 (ligand, mouse)
chain 1: MWELEKDVYVVEVDWTPDAPGETVNLTCDTPEEDDITWTSDQRHGVIGSGKTLTITVKEFLDAGQYTCHKGGETLSHSHLLLHKKENGIWSTEILKNFKNKTFLKCEAPNYSGRFTCSWLVQRNMDLKFNIKSSSSSPDSRAVTCGMASLSAEKVTLDQRDYEKYSVSCQEDVTCPTAEETLPIELALEARQQNKYENYSTSFFIRDIIKPDPPKNLQMKPLKNSQVEVSWEYPDSWSTPHSYFSLKFFVRIQRKKEKMKETEEGCNQKGAFLVEKTSTEVQCKGGNVCVQAQDRYYNSSCSKWACVPCRVRS
chain 2: RVIPVSGPARCLSQSRNLLKTTDDMVKTAREKLKHYSCTAEDIDHEDITRDQTSTLKTCLPLELHKNESCLATRETSSTTRGSCLPPQKTSLMMTLCLGSIYEDLKMYQTEFQAINAALQNHNHQQIILDKGMLVAIDELMQSLNHNGETLRQKPPVGEADPYRVKMKLCILLHAFSTRVVTINRVMGYLSSA
For B1, in assay [1], the EC50 (M), STAT3-Luc reporter, CTLL2/STAT3-Luc cells was 3.46e-11 M; the Fold induction at 20 nM, STAT3-Luc reporter, CTLL2/STAT3-Luc cells was 18.8 fold; the Max fold induction, STAT3-Luc reporter, CTLL2/STAT3-Luc cells is 19.1 fold. In assay [2], the EC50 (M), STAT3-Luc reporter, CTLL2/STAT3-Luc cells came to 5.56e-11 M; the Fold induction at 6.25 nM, STAT3-Luc reporter, CTLL2/STAT3-Luc cells worked out at 12.2 fold; the Max fold induction, STAT3-Luc reporter, CTLL2/STAT3-Luc cells is 12.4 fold. In assay [3], this molecule registered an EC50 (M), STAT3-Luc reporter, CTLL2/STAT3-Luc cells of 3.71e-10 M and a Max fold induction, STAT3-Luc reporter, CTLL2/STAT3-Luc cells of 17.8 fold.

The values above are taken from patent US20250066441A1.
